Source: patent US20040006018A1 (Genentech, published 2004)

Legend:
[1] = target: T1, Human LIF receptor on human Hela cells (human, UniProt P42702 45-1097); test: conditioned medium competing for 125I-human LIF binding to Hela cells
T1 construct: whole, on cells; Endogenous receptor on cells; other subunits (gp130) not examined on these cells
T1 sequence (looked up): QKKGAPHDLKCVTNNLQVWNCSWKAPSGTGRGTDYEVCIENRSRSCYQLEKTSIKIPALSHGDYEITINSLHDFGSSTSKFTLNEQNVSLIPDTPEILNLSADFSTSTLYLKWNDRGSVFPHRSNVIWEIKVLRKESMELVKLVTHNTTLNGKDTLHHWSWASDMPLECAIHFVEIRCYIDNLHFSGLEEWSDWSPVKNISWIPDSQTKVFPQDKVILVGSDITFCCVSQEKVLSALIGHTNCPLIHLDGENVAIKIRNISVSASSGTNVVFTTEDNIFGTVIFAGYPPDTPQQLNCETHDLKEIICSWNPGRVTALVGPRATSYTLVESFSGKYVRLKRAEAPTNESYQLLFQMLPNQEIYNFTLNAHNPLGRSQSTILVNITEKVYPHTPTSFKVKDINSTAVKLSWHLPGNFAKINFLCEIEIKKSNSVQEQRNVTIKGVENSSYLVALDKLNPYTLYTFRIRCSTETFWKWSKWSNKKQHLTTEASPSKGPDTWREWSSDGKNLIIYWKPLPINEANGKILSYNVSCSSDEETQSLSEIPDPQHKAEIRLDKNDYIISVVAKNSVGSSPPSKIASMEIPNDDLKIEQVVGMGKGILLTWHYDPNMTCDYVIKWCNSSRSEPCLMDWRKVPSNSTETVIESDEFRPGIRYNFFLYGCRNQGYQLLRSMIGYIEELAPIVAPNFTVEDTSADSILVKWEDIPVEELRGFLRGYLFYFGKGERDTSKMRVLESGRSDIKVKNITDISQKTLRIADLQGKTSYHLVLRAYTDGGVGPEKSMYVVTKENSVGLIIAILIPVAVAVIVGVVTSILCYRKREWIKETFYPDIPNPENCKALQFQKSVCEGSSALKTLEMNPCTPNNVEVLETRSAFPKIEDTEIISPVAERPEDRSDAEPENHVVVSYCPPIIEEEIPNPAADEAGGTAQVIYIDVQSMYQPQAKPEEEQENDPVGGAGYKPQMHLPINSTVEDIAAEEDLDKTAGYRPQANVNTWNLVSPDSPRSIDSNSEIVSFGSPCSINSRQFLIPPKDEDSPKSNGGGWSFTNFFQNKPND

[2] = target: T2, OSM specific receptor (oncostatin M receptor) on human WI-26 VA4 cells (human, UniProt Q99650 28-979); test: competition for 125I-human OSM binding to WI-26 VA4 cells
T2 construct: whole, on cells; Endogenous receptor on cells; further subunits not described for this assay; also called specific OSM Receptor; WI-26 cells
T2 sequence (looked up): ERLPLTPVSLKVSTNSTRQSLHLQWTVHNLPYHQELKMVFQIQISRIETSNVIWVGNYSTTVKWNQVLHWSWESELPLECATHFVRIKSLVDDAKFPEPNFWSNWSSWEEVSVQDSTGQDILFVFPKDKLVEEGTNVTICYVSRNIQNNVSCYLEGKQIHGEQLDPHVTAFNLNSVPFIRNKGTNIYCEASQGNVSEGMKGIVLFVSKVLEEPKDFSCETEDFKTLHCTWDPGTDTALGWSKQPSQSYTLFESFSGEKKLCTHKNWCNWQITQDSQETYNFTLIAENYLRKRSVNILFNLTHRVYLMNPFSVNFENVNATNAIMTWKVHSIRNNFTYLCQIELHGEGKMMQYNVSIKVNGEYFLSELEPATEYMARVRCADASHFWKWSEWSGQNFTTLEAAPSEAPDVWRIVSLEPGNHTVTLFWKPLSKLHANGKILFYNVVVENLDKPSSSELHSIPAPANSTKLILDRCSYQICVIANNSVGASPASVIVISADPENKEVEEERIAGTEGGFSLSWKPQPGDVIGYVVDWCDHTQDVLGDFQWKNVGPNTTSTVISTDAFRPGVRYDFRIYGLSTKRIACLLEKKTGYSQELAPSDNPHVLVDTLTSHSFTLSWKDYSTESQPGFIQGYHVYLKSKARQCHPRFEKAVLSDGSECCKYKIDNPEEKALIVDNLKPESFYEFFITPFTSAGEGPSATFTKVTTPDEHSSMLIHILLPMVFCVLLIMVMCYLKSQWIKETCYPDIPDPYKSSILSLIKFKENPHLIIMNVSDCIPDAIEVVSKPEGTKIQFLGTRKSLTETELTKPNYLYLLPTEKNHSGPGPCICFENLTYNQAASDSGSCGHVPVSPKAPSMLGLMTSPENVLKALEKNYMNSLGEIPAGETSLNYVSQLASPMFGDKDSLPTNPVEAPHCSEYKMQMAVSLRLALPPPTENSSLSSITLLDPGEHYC

[3] = target: T3, Mouse LIF receptor on mouse M1 cells (LIF receptor complex with gp130) (mouse, UniProt P42703 44-1092; Q00560 23-917); test: conditioned medium competing for 125I-human LIF binding to M1 cells
T3 construct: whole, on cells; Endogenous receptor on M1 cells; also called LIFRβ
T3 sequence (Q00560 23-917, one chain of several): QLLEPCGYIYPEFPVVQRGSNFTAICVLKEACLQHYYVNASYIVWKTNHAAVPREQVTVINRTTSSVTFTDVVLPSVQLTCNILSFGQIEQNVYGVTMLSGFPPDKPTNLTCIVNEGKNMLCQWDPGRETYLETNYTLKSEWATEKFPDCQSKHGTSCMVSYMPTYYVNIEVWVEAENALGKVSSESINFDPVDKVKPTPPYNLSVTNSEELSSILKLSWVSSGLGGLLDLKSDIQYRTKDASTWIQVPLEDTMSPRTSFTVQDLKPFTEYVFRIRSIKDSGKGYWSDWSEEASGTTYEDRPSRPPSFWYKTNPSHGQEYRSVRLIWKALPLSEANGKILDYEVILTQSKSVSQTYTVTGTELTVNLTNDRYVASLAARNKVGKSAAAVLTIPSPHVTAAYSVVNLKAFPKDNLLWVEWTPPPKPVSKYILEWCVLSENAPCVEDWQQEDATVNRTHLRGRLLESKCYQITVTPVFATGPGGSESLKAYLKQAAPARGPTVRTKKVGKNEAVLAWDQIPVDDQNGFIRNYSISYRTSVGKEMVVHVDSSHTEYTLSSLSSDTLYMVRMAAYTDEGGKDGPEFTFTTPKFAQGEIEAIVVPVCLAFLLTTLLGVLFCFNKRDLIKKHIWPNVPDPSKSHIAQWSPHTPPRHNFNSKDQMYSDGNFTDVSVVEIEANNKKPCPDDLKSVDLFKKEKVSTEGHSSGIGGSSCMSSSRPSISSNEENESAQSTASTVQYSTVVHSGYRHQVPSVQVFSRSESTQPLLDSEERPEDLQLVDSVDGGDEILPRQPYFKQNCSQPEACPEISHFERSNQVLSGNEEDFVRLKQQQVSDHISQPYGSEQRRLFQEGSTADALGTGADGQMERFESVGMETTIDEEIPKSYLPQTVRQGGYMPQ

binding result [1]: binds
binding result [2]: no binding
binding result [3]: binds
B1: Human CT-1 (conditioned medium from human 293 cells transfected with pRK5.hu.CT1) (ligand)
chain: MSRREGSLEDPQTDSSVSLLPHLEAKIRQTHSLAHLLTKYAEQLLQEYVQLQGDPFGLPSFSPPRLPVAGLSAPAPSHAGLPVHERLRLDAAALAALPPLLDAVCRRQAELNPRAPRLLRRLEDAARQARALGAAVEALLAALGAANRGPRAEPPAATASAASATGVFPAKVLGLRVCGLYREWLSRTEGDLGQLLPGGSA
notes: Not purified: tested as clarified conditioned medium (concentrated 10 fold and added at a 3-fold dilution for Hela cells; unconcentrated for WI-26 cells); also called human cardiotrophin-1; hCT-1
